Where no end group is shown, it is not given here. The star is where a group is joined. Dansyl = CN(C)c1cccc2c(S(=O)(=O)*)cccc12
Assays:
[1] = biological target: Caco-2 cell membrane (P100) fractions; test: ELISA on coated Caco-2 P100 fraction, anti-dansyl detection; assay 1, peptide at 20 µg/ml
[2] = biological target: Caco-2 cell membrane (P100) fractions; test: ELISA on coated Caco-2 P100 fraction, anti-dansyl detection; assay 2, peptide at 50 µg/ml
[3] = biological target: Caco-2 cell membrane (P100) fractions; test: ELISA on coated Caco-2 P100 fraction, anti-dansyl detection; assay 3, peptide at 50 µg/ml
[4] = biological target: Caco-2 cell membrane (P100) fractions; test: ELISA on coated Caco-2 P100 fraction, anti-dansyl detection; assay 4, peptide at 25 µg/ml
[5] = biological target: Caco-2 cell membrane (P100) fractions; test: ELISA on coated Caco-2 P100 fraction, anti-dansyl detection; assay 5, peptide at 25 µg/ml
[6] = biological target: Caco-2 cell membrane (P100) fractions; test: ELISA on coated Caco-2 P100 fraction, anti-dansyl detection; assay 6, peptide at 25 µg/ml
[7] = biological target: Caco-2 cell membrane (P100) fractions; test: ELISA on coated Caco-2 P100 fraction, anti-dansyl detection; assay 7, peptide at 25 µg/ml
[8] = biological target: Caco-2 cell membrane (P100) fractions; test: ELISA on coated Caco-2 P100 fraction, anti-dansyl detection; assay 8, peptide at 25 µg/ml

| Binder | binding to P100 relative to ZElan021 (arbitrary value 1.00) [1] | binding to P100 relative to ZElan021 (arbitrary value 1.00) [2] | binding to P100 relative to ZElan021 (arbitrary value 1.00) [3] | binding to P100 relative to ZElan021 (arbitrary value 1.00) [4] | binding to P100 relative to ZElan021 (arbitrary value 1.00) [5] | binding to P100 relative to ZElan021 (arbitrary value 1.00) [6] | binding to P100 relative to ZElan021 (arbitrary value 1.00) [7] | binding to P100 relative to ZElan021 (arbitrary value 1.00) [8] |
| --- | --- | --- | --- | --- | --- | --- | --- | --- |
| K(Dansyl)SDHALGTNLRSDNAKEPGDYNCCGNGNSTGRKVFNRRRPSAIPT (cysteine pairing not given here) [ZElan021, full length HAX42] | 1 | 1 | 1 | 1 | 1 | 1 | 1.14 | 0.94 |
| K(Dansyl)PGDYNCCGNGNSTG (cysteine pairing not given here) [ZElan091, HAX42 14 mer fragment] | – | – | – | 2.02 | 1.37 | 1.2 | 0.85 | – |

From patent publication US20090238886A1
